The supplement of paper PMC10567573

B1: SFRS1 (parent)
chain: YSPRRSRGSPRYSPRHSRSRSRT
B2: TPD52L2 (parent)
chain: EAEEEELRAELTKVEEEIVTLRQV

Variants of: B1
Assay: protein stability index of a GFP-peptide fusion (GPS, HEK-293T) (PSI 1-6); higher = more stable
Settings: c terminus: native
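Note: lentivirally expressed fusions sorted by FACS into six bins by GFP to DsRed ratio, PSI derived from sequencing read proportions per bin multiplied by bin number.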

| Variant | protein stability index |
| --- | --- |
| YSPRRSRGSPRYSPRHSRSRSRV [T23V] | 3.69 |
| YSPRRSRGSPRYSPRHSRSRSRS [T23S] | 3.4 |
| YSPRRSRGSPRYSPRHSRSRSRW [T23W] | 3.79 |
| YSPRRSRGSPRYSPRHSRSRSRY [T23Y] | 4.44 |

Variants of: B2
Assay: as above
Settings: c terminus: a fixed tail appended

| Variant | protein stability index |
| --- | --- |
| NAEEEELRAELTKVEEEIVTLRQV [E1N] | 2.5 |
| HAEEEELRAELTKVEEEIVTLRQV [E1H] | 3.07 |
| AAEEEELRAELTKVEEEIVTLRQV [E1A] | 3.63 |
| CAEEEELRAELTKVEEEIVTLRQV [E1C] | 2.89 |
| MAEEEELRAELTKVEEEIVTLRQV [E1M] | 2.53 |
| QAEEEELRAELTKVEEEIVTLRQV [E1Q] | 3.76 |
| PAEEEELRAELTKVEEEIVTLRQV [E1P] | 3.43 |
| SAEEEELRAELTKVEEEIVTLRQV [E1S] | 2.97 |
| WAEEEELRAELTKVEEEIVTLRQV [E1W] | 2.01 |
| VAEEEELRAELTKVEEEIVTLRQV [E1V] | 3.58 |
| DAEEEELRAELTKVEEEIVTLRQV [E1D] | 3.74 |
| FAEEEELRAELTKVEEEIVTLRQV [E1F] | 2 |
| YAEEEELRAELTKVEEEIVTLRQV [E1Y] | 3.35 |
| RAEEEELRAELTKVEEEIVTLRQV [E1R] | 2.63 |
| IAEEEELRAELTKVEEEIVTLRQV [E1I] | 1.94 |
| LAEEEELRAELTKVEEEIVTLRQV [E1L] | 2.57 |
| TAEEEELRAELTKVEEEIVTLRQV [E1T] | 2.79 |
| KAEEEELRAELTKVEEEIVTLRQV [E1K] | 3.06 |
| GAEEEELRAELTKVEEEIVTLRQV [E1G] | 3.02 |
| EAEELELRAELTKVEEEIVTLRQV [E5L] | 2.64 |
| EAEEAELRAELTKVEEEIVTLRQV [E5A] | 2.3 |
| EAEENELRAELTKVEEEIVTLRQV [E5N] | 2.28 |
| EAEEHELRAELTKVEEEIVTLRQV [E5H] | 2.44 |

| Variant | protein stability index |
| --- | --- |
| EAEEFELRAELTKVEEEIVTLRQV [E5F] | 2.34 |
| EAEEPELRAELTKVEEEIVTLRQV [E5P] | 4.18 |
| EAEECELRAELTKVEEEIVTLRQV [E5C] | 2.46 |
| EAEEMELRAELTKVEEEIVTLRQV [E5M] | 2.48 |
| EAEEIELRAELTKVEEEIVTLRQV [E5I] | 2.98 |
| EAEEDELRAELTKVEEEIVTLRQV [E5D] | 3.91 |
| EAEEGELRAELTKVEEEIVTLRQV [E5G] | 2.97 |
| EAEEKELRAELTKVEEEIVTLRQV [E5K] | 2.75 |
| EAEEQELRAELTKVEEEIVTLRQV [E5Q] | 3.35 |
| EAEERELRAELTKVEEEIVTLRQV [E5R] | 2.89 |
| EAGEEELRAELTKVEEEIVTLRQV [E3G] | 3.52 |
| EADEEELRAELTKVEEEIVTLRQV [E3D] | 4.29 |
| EAKEEELRAELTKVEEEIVTLRQV [E3K] | 3.18 |
| EAPEEELRAELTKVEEEIVTLRQV [E3P] | 2.92 |
| EATEEELRAELTKVEEEIVTLRQV [E3T] | 2.83 |
| EACEEELRAELTKVEEEIVTLRQV [E3C] | 2.65 |
| EAHEEELRAELTKVEEEIVTLRQV [E3H] | 3.08 |
| EAIEEELRAELTKVEEEIVTLRQV [E3I] | 2.79 |
| EAREEELRAELTKVEEEIVTLRQV [E3R] | 3.04 |
| EASEEELRAELTKVEEEIVTLRQV [E3S] | 3.63 |
| EAQEEELRAELTKVEEEIVTLRQV [E3Q] | 2.73 |
| EANEEELRAELTKVEEEIVTLRQV [E3N] | 3.1 |
| EAAEEELRAELTKVEEEIVTLRQV [E3A] | 3.04 |

| Variant | protein stability index |
| --- | --- |
| EAYEEELRAELTKVEEEIVTLRQV [E3Y] | 2.86 |
| EAWEEELRAELTKVEEEIVTLRQV [E3W] | 3.43 |
| EAFEEELRAELTKVEEEIVTLRQV [E3F] | 2.45 |
| EAVEEELRAELTKVEEEIVTLRQV [E3V] | 3.22 |
| EAMEEELRAELTKVEEEIVTLRQV [E3M] | 2.71 |
| EALEEELRAELTKVEEEIVTLRQV [E3L] | 2.76 |
| EQEEEELRAELTKVEEEIVTLRQV [A2Q] | 4.57 |
| EEEEEELRAELTKVEEEIVTLRQV [A2E] | 4.6 |
| EKEEEELRAELTKVEEEIVTLRQV [A2K] | 3.04 |
| EYEEEELRAELTKVEEEIVTLRQV [A2Y] | 3.1 |
| ECEEEELRAELTKVEEEIVTLRQV [A2C] | 3.17 |
| EPEEEELRAELTKVEEEIVTLRQV [A2P] | 4.03 |
| ESEEEELRAELTKVEEEIVTLRQV [A2S] | 3.42 |
| EDEEEELRAELTKVEEEIVTLRQV [A2D] | 4.7 |
| EIEEEELRAELTKVEEEIVTLRQV [A2I] | 2.67 |
| EGEEEELRAELTKVEEEIVTLRQV [A2G] | 4.06 |
| EHEEEELRAELTKVEEEIVTLRQV [A2H] | 3.23 |
| ENEEEELRAELTKVEEEIVTLRQV [A2N] | 4.25 |
| EREEEELRAELTKVEEEIVTLRQV [A2R] | 3.29 |
| ELEEEELRAELTKVEEEIVTLRQV [A2L] | 2.93 |
| ETEEEELRAELTKVEEEIVTLRQV [A2T] | 2.8 |
| EMEEEELRAELTKVEEEIVTLRQV [A2M] | 2.8 |
| EVEEEELRAELTKVEEEIVTLRQV [A2V] | 3.3 |

| Variant | protein stability index |
| --- | --- |
| EWEEEELRAELTKVEEEIVTLRQV [A2W] | 2.88 |
| EFEEEELRAELTKVEEEIVTLRQV [A2F] | 3.45 |
| EAEIEELRAELTKVEEEIVTLRQV [E4I] | 3.73 |
| EAELEELRAELTKVEEEIVTLRQV [E4L] | 3.81 |
| EAEFEELRAELTKVEEEIVTLRQV [E4F] | 2.79 |
| EAEVEELRAELTKVEEEIVTLRQV [E4V] | 3.63 |
| EAEPEELRAELTKVEEEIVTLRQV [E4P] | 3.68 |
| EAEHEELRAELTKVEEEIVTLRQV [E4H] | 3.21 |
| EAEGEELRAELTKVEEEIVTLRQV [E4G] | 3.23 |
| EAENEELRAELTKVEEEIVTLRQV [E4N] | 4.34 |
| EAETEELRAELTKVEEEIVTLRQV [E4T] | 3.75 |
| EAEWEELRAELTKVEEEIVTLRQV [E4W] | 2.93 |
| EAESEELRAELTKVEEEIVTLRQV [E4S] | 3.41 |
| EAEQEELRAELTKVEEEIVTLRQV [E4Q] | 4.02 |
| EAEREELRAELTKVEEEIVTLRQV [E4R] | 3.76 |
| EAECEELRAELTKVEEEIVTLRQV [E4C] | 2.93 |
| EAEAEELRAELTKVEEEIVTLRQV [E4A] | 3.77 |
| EAEKEELRAELTKVEEEIVTLRQV [E4K] | 4.13 |
| EAEDEELRAELTKVEEEIVTLRQV [E4D] | 3.89 |
| EAEYEELRAELTKVEEEIVTLRQV [E4Y] | 2.25 |
| EAEMEELRAELTKVEEEIVTLRQV [E4M] | 3.42 |
